Source: PMC6937325, “Tuning PFKFB3 Bisphosphatase Activity Through Allosteric Interference” (Scientific Reports, 2019)
Square brackets hold non-standard residues; d marks the D form. Ends that are not written are not given here.

Key:
[1] = target: T1, human inducible phospho-fructokinase bisphosphatase isoform 3, PFKFB3 (human, UniProt Q16875 1-520, RED-NHS label); test: MST; Nanotemper microscale thermophoresis; compound in MST buffer mixed 1:1 with 100 nM RED-NHS labeled recombinant PFKFB3, incubated 20 min at room temperature; settings: both partners purified
T1 construct: human PFKFB3 (inducible bifunctional enzyme), GenBank AF056320.1; Plasmid from Prof; Yong-Hwan Lee; also called 6-Phosphofructo-2-kinase/fructose-2,6-biphosphatase 3; human inducible bifunctional enzyme; not shown: His tag, N-terminal, cleaved
T1 sequence (Q16875 whole entry, canonical isoform): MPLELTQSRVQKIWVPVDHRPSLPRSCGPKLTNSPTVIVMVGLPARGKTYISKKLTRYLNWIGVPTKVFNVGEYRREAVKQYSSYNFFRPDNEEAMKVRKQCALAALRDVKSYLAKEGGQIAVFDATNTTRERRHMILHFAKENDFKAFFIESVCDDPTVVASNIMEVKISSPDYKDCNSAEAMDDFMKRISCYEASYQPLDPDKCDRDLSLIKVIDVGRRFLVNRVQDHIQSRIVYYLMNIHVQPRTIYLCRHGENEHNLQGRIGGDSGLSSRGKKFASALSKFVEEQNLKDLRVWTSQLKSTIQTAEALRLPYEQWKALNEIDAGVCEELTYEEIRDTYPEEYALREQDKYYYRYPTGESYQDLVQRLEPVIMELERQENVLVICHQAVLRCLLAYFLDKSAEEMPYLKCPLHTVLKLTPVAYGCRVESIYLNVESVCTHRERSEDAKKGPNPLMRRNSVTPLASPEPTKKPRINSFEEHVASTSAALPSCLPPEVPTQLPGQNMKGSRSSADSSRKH

[2] = target: T1, human inducible phospho-fructokinase …; test: as above; settings: both partners purified; remark: listed apart in the source

B1: peptide 4 (YSGFLT) (peptide)
peptide: YSGFLT
notes: printed as YSGFLT; picked by virtual screening of ZINC libraries; also called compound 4; source: synthetic peptide
Kd [1]: 18.3 µM

B2: peptide 5 (SFLLR-CONH2) (peptide)
peptide: SFLLR-NH2
notes: printed as SFLLR-CONH2; picked by virtual screening of ZINC libraries; also called compound 5; source: synthetic peptide
Kd [1]: 44.4 µM

[dW]-Gly-[dY] [peptide 6 (wGy)]
Kd [2]: 2.79 µM
